Experimental data taken from publication PMC3098377, “CpG Islands Recruit a Histone H3 Lysine 36 Demethylase”.

Legend:
KDM2A 1-747 (human) = experiment: SPR; conditions: EMSA: 4% Ficoll 400, 20 mM Hepes pH 7.9, 150 mM KCl, 1 mM EDTA, 0.5 mM DTT, 25 ng/ul poly-dAdT, room temperature, 0.8% agarose gel 0.5x TBE 4 C; SPR: 10 mM …
KDM2A ZF-CxxC domain = target: T1, KDM2A ZF-CxxC domain (human, UniProt Q9Y2K7 544-648); experiment: EMSA; EMSA: 4% Ficoll 400, 20 mM Hepes pH 7.9, 150 mM KCl, 1 mM EDTA, 0.5 mM DTT, 25 ng/ul poly-dAdT, room temperature, 0.8% agarose gel 0.5x TBE 4 C; SPR: 10 mM Hepes pH 7.9, 150 mM NaCl, 1 mM DTT, further additive truncated in material, KDM2A 0-3 uM; conditions: protein: recombinant; tags: His (pET30b); label: 32P 5' end; blunt
T1 sequence: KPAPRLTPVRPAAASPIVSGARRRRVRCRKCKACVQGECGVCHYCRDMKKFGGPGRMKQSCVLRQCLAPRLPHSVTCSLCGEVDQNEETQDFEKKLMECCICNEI

## 75 bp probe, 1 CpG
KDM2A 1-747 (human)
  Kd: 640 nM

## 75 bp probe, 6 CpG
KDM2A 1-747 (human)
  Kd: 560 nM

B1: short probe, CpGs methylated (dsDNA)
DNA 1: GTAGGCGGTGCTACACGGTTCCTGAAGTG
DNA 2: CACTTCAGGAACCGTGTAGCACCGCCTAC
modifications: CpG methylated (5mC); strands and method not stated
KDM2A ZF-CxxC domain
  binding result: no binding

B2: short probe with two CpGs (dsDNA)
DNA 1: GTAGGCGGTGCTACACGGTTCCTGAAGTG
DNA 2: CACTTCAGGAACCGTGTAGCACCGCCTAC
KDM2A ZF-CxxC domain
  binding result: binds
